Assays:
[1] = tested on: influenza A group 1 and group 2 NAs; assay: Enzyme-linked lectin assay (ELLA) neuraminidase inhibition, influenza A NAs; format: biochemical, influenza A virus; conditions: for neuraminidase inhibition (NI) in ELLA: fetuin substrate, subtypes inhibited are named in the value
Description: Ninety six-well microtiter plates (Thermo Fisher) were coated with 100 μL/well fetuin (Sigma) at a concentration of 25 μg/mL in 1× coating buffer (KPL coating solution; SeraCare) at 4° C. overnight. The next day, the plates were washed three times with T-PBS and blocked in 200 μL blocking buffer (5% bovine serum albumin (BSA, Biomedicals) in PBS) at room temperature. On a separate 96-well plate virus was serially diluted 1:2 in PBS. Seventy-five μL of PBS was added to all wells and the plates incubated for 1.5 h on a shaker at room temperature. After blocking, the plates were washed three times with T-PBS, 100 μL of serially diluted virus was transferred well by well to the fetuin coated plates and the plates were incubated for 2 hours at 33° C. or 37° C. depending on the virus type. The plates were washed four times and 100 μL peanut agglutinin (PNA) conjugated to HRP at a concentration of 5 μg/mL was added to all wells. The plates were incubated in the dark for two hours, the plates washed four times and developed with 100 μL SigmaFast OPD. The reaction was stopped after 5 min with 50 μL 3M hydrochloric acid (Thermo Fisher) and the plates were read at a wavelength of 490 nm with a microtiter plate reader (Bio-Tek). The data were analyzed in Microsoft Excel and GraphPad Prism 7, and the 50% effective concentration (EC50) was calculated for each virus.
To perform neuraminidase inhibition assays, the microtiter plates were coated and blocked as described above. During the blocking of the fetuin coated plates the mAbs were diluted to a starting concentration of 30 μg/mL and serially diluted 1:2 in PBS in a separate 96-well plate. Seventy-five μL of virus diluted to 2× effective concentration 50 (EC50) was added to wells of the serially diluted mAbs and incubated for 1.5 h on a shaker. The fetuin coated plates were washed three times with T-PBS and the virus/mAb mixture was added to the plates and incubated for 2 hours at 33° C. or 37° C. The remainder of the assay was performed as described above. The data were analyzed in Microsoft Excel and GraphPad Prism 7, and the inhibitory concentration 50 (IC50) was calculated.

[2] = tested on: recombinant NA, group 1 NAs (N1, N4, N5 and N8) and group 2 NAs (N2, N3, N6, N7 and N9); format: binding, influenza A virus
[3] = tested on: virus expressing a group 1 neuraminidase (N4); parameters: species or system mice; conditions: mouse, in vivo
[4] = tested on: recombinant N2 NA; format: binding, influenza A virus
[5] = tested on: challenge viruses expressing N1, N2, N3, N5, N6, N7, N8, N9 NAs and influenza B virus NA; parameters: species or system mice; conditions: mouse, in vivo

| Molecule | neuraminidase inhibition (NI) in ELLA [1] | binding / cross-reactivity to recombinant influenza A NA subtypes in ELISA [2] | weight loss [3] | binding to N2 NA [4] | protection against weight loss [5] | protection from lethality [5] | NA inhibition in ELLA ([1]; H3N2 strain A/Hong Kong/4801/2014) |
| --- | --- | --- | --- | --- | --- | --- | --- |
| 1G01: human anti-NA monoclonal antibody expressed as IgG1; heavy chain variable region SEQ ID NO: 44, light chain variable region SEQ ID NO: 45 (antibody, listed as Homo sapiens, V domains shown, IgG1 constant regions) VH: EVQLVESGGRALRPGGSLRLSCAASGFKFDDYAMSWVRQVPGKGLEFVSGLNWNGDITAYTDSVKGRFTVSRDNAKNSLYLHINSPKPEDTALYYCARTSSWGDYTRGPEPKITWYFDLWGRGTLVTVSS VL: DIQLTQSPSFLSASVGDRITITCRASQGIDGYLAWYQQRPGKAPNLLIYAASLLQSGVPSRFSGSGYGTEFTLTISSLQPEDFATYYCQHLDSYPLFTFGPGTKVDIK | inhibited the activity of all A/group 2 and group 1 NAs | broadest binding activity that covered all group 1 NAs (N1, N4, N5 and N8) and group 2 NAs (N2, N3, N6, N7 and N9) | some transient weight loss | bound | solid protection against weight loss | full protection from lethality | – |
| 1G01 Fab: antigen-binding fragment (Fab) of 1G01 used instead of the full antibody (antibody, left off: a dimerising Fc or GST) heavy: EVQLVESGGRALRPGGSLRLSCAASGFKFDDYAMSWVRQVPGKGLEFVSGLNWNGDITAYTDSVKGRFTVSRDNAKNSLYLHINSPKPEDTALYYCARTSSWGDYTRGPEPKITWYFDLWGRGTLVTVSS light: DIQLTQSPSFLSASVGDRITITCRASQGIDGYLAWYQQRPGKAPNLLIYAASLLQSGVPSRFSGSGYGTEFTLTISSLQPEDFATYYCQHLDSYPLFTFGPGTKVDIK | – | – | – | – | – | – | potent inhibition |
| 1G04: human anti-NA monoclonal antibody expressed as IgG1; heavy chain variable region SEQ ID NO: 40, light chain variable region SEQ ID NO: 41 (antibody, listed as Homo sapiens, V domains shown, IgG1 constant regions) VH: EVQLVESGGRVVRPGGSLRLSCAASGFTFDDYGMSWVRQAPGKGLEFVSGLNWNGDITAFTDSVKGRFTISRDNAKSSLYLQMNSLRADDTAFYYCARVRTWGEYTTREEPIHSWYFDLWGRGTLVTVSS VL: DIQLTQSPSFLSASVGDRVTITCRASQDISSFLAWYQQKPGNAPKVLIYAASLLQSGVPSRFSGSGSGTDFTLTISSLQPEDFATYYCQQLNSYPLFTFGPGTKVDIK | inhibited N2, N3 and certain N1 NAs | some cross-reactivity to N3 and N6 (group 2), and N1, N5 and N8 (group 1) | – | bound | – | – | – |
| 1E01: human anti-NA monoclonal antibody expressed as IgG1; heavy chain variable region SEQ ID NO: 42, light chain variable region SEQ ID NO: 43 (antibody, listed as Homo sapiens, V domains shown, IgG1 constant regions) VH: EVQLVESGGRVVRPGGSLRLSCAASGFTFDDYGMSWVRQPPGKGLEFVSGLNWNGDITAFTDSVKGRFTISRDNVKSSLYLQMNSLRADDTAFYYCARVRTWGDYTTGEEIINSWYFDLWGRGTLVTVSS VL: DIQLTQSPSFLSASVGDRVTITCRASQDISSYLAWYQQKPGNAPKLLIYAASLLQSGVPSRFSAFGSGTEFTLTISSLQPEDFATYYCQHLKSYPLFTFGPGTKVDIK | inhibited group 2 NAs, N1 | even broader binding pattern that included group 2 NAs N3, N6, N7 and N9, group 1 NAs N1, N5 and N8 | – | bound | – | – | – |
